These results are taken from patent US20150004129A1.

pKd: −log10 of the molar value. A value given as a limit tells only on which side of the number the result lay.

The target in experiment [1] is Flag-FasL (soluble FasL) (UniProt P48023). The experiment is described as follows: BIAcore; 7 ul of 2.5 ug/ml Flag-FasL over immobilised M2 antibody. Background: SPR reads the build-up and loss of mass on a sensor chip optically.
A further experiment concerns the target Flag-TRAIL (UniProt P50591). The experiment is described as follows: BIAcore; 7 ul of 2.5 ug/ml Flag-TRAIL over immobilised M2 antibody.
Experiment [2] concerns the target Flag-CD40L (AA 116 to 261) (human) (UniProt P29965). The experiment is described as follows: competitive ELISA; receptor/Fc coated, sCD40L at constant concentration, competitor titrated with 1 ug/ml protein A. In general terms: An ELISA detects its analyte on a solid surface through an enzyme-linked reagent.
Experiment [3] addresses Flag-FasL (soluble FasL) (UniProt P48023). The experiment is described as follows: cell-based or functional assay.
Experiment [4] shares this target. The experiment is described as follows: BIAcore; Flag-FasL captured on immobilised M2 anti-Flag antibody.
Experiment [5] shares this target. The experiment is described as follows: BIAcore; Flag-FasL captured on immobilised M2 anti-Flag antibody, receptor fusion protein injected.
In experiment [6] the target is Flag-CD40L (AA 116 to 261) (human) (UniProt P29965). The experiment is described as follows: competitive ELISA; receptor/Fc coated, sCD40L at constant concentration, competitor titrated.

Chain of UniProt P48023 (P48023 other isoform, or with tags, fused parts or gaps): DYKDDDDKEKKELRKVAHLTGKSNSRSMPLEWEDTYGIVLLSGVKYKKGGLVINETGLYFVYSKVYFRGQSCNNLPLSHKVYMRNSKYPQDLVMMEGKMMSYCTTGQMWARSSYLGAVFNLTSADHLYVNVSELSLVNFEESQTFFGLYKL
Chain of UniProt P29965 (P29965 other isoform, or with tags, fused parts or gaps): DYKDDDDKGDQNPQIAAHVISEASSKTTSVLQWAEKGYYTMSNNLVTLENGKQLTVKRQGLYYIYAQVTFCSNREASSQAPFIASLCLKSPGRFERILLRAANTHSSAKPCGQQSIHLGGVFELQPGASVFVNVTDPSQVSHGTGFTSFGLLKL

In the case of M2 anti-Flag monoclonal antibody, the units bound (BIAcore) with Flag-FasL (soluble FasL) [1] and with Flag-TRAIL was 100 to 150 units each time.

For “CD40:Fc cross-linked with protein A (from UniProt P25942 1-193)”, the fold increase in the affinity against CD40:Fc in experiment [2] was 8 fold.

For the substance “Fas:Fc fusion protein (from UniProt P25445 26-170)”, the protection of A20 cells exposed to a lethal dose of soluble FasL (cytotoxicity test) in the experiment with Flag-FasL (soluble FasL) [3] was under 50%.

As to “Fas:COMP fusion protein (from UniProt P25445 26-170) (receptor)”, in the experiment with Flag-FasL (soluble FasL) [4], the fold lower dissociation constant than Fas:Fc fell in the range of 8 to 9 fold. In the experiment with Flag-FasL (soluble FasL) [3], the inhibitory activity against sFasL-mediated lysis, fold against Fas:Fc lay within 10 to 20 fold. For the same substance, the pKd with Flag-FasL (soluble FasL) [5] is 9.11.

Substance “CD40:COMP fusion protein (from UniProt P25942 1-193) (receptor)” returned a fold increase in the affinity against CD40:Fc in experiment [6] of 30 fold.

As a reminder, the pKd is the Kd on a negative log10 scale, so that one unit is a factor of ten. Low values mean a high Kd, high ones a low Kd.
